# Measurements taken from patent US20220153819A1 (Regeneron, published 2022).
# Values joined by “and” are separate entries in the source; they are usually repeats but may differ in a detail not shown here. Equal values may be shown once. Read-outs that look alike come from different tables or passages of the source.
# B1: REGN5536, anti-PNAG x anti-C1q scFv bispecific antibody (bispecific antibody, human IgG1, lambda)
# heavy: not shown
# light: QLVLTQSPSASASLGASVKLTCTLSSGHSNYAIAWHQQQPGKGPRYLMKVNRDGSHIRGDGIPDRFSGSTSGAERYLTISSLQSEDEADYYCQTWGAGIRVFGGGTKLTVLGQPKAAPSVTLFPPSSEELQANKATLVCLISDFYPGAVTVAWKADSSPVKAGVETTTPSKQSNNKYAASSYLSLTPEQWKSHRSYSCQVTHEGSTVEKTVAPTECS
# scFv: not shown
# B2: parental bivalent anti-IsdB antibody (antibody, V domains shown)
# VH: EVQLVESGGGLVQPGRSLRLSCTTSGFTFDDYAMHWVRQVPGQGLEWVAGLSWNSDTIGYADSVKGRFTISRDNAKNSLYLQMKSLKAEDTALYYCTKDFYHSLNNWNYYYFDYWGQGTLVTVSS
# VL: not shown
# notes: also called anti-IsdB bival; bivalent IsdB antibody
# B3: REGN5409, anti-Psl x anti-C1q scFv bispecific antibody (bispecific antibody, human IgG1, lambda)
# heavy: not shown
# light: SSELTQDPAVSVALGQTVRITCQGDSLRSYYASWYQQKPGQAPVLVIYGKNNRPSGIPDRFSGSSSGNTASLTITGAQAEDEADYYCNSRDSSGNHVVFGGGTKLTVLGQPKAAPSVTLFPPSSEELQANKATLVCLISDFYPGAVTVAWKADSSPVKAGVETTTPSKQSNNKYAASSYLSLTPEQWKSHRSYSCQVTHEGSTVEKTVAPTECS
# scFv: not shown
# B4: Rituximab (antibody, V domains shown)
# VH: QVQLQQPGAELVKPGASVKMSCKASGYTFTSYNMHWVKQTPGRGLEWIGAIYPGNGDTSYNQKFKGKATLTADKSSSTAYMQLSSLTSEDSAVYYCARSTYYGGDWYFNVWGAGTTVTVSA
# VL: QIVLSQSPAILSASPGEKVTMTCRASSSVSYIHWFQQKPGSSPKPWIYATSNLASGVPVRFSGSGSGTSYSLTISRVEAEDAATYYCQQWTSNPPTFGGGTKLEIK
# B5: REGN6545, anti-GITR x anti-C1q bispecific antibody (bispecific antibody, V domains shown)
# VH 1: QVQLQESGPGLVKPSETLSLTCIVSGGSISGYFWNWIRQPPGKGLEWIGYIYYSGTTIYNPSLKSRFTISLDTSKNQFSLKLTSVTAADTAVYYCARESYNPSPRYFDHWGQGTLVTVSS
# VH 2: EVQLVESGGGVVQPGGSLRLSCAASGFSLDDYAMHWVRQTPGKGLEWVSLISGDGSRTSYADSVKGRFTISRDNSKNSLYLKMNSLRTEDTALYYCTKDPHNSNWFDPWGQGTLVTVSS
# VL: not shown
# B6: REGN5177, anti-CD20 x anti-C1q bispecific antibody (bispecific antibody, V domains shown)
# VH 1: QVHLVESGGGVVQPGRSLRLSCSVSGLTFNSYGMHWVRQAPGKGLEWVTMISYDGSDKYYLDSVKGRFTISRDNSKNILYLQINSLRPEDTAVYYCVNWDNWRGNFDYWGQGTLVTVSS
# VH 2: B5 VH 2
# VL: not shown
# B7: REGN5372, anti-GITR bivalent hIgG1 antibody (antibody, V domains shown)
# VH: B5 VH 1
# VL: not shown
# B8: REGN5553, anti-IsdA x anti-C1q bispecific antibody (bispecific antibody, V domains shown)
# VH 1: EVQLVESGGGLVQPGRSLRVSCAASGFTFDDYAMHWVRQIPGKGLEWVSGIRWNSDTIGYADSVKGRFTISRDNAKNFLYLQMNSLRTEDTALYYCVKDMRVRGIIMYGMDVWGQGTTVTVSS
# VH 2: B5 VH 2
# VL: not shown
# notes: also called bsC1q × IsdA; bs hC1q × IsdA
# B9: mAb14303, anti-CD20 parental bivalent hIgG1 antibody (antibody, V domains shown)
# VH: B6 VH 1
# VL: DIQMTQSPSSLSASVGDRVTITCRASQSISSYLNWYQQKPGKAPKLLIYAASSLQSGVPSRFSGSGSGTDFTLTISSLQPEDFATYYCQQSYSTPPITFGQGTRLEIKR
# B10: mAb11829, parental anti-HA bivalent antibody (antibody, V domains shown)
# VH: QVHLVQSGPEVKKPGSSVKVSCKASGVTFISHAISWVRQAPGQGLEWVGGIIAIFGTTNYAQKFQGRVTVTTDKSTNTVYMELSRLRSEDTAIYYCARGETYYEGNFDFWGQGTLVTVSS
# VL: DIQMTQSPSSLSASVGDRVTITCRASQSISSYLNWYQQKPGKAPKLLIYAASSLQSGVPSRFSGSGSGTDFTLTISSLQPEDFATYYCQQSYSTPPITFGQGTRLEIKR
# notes: also called Flu A, group 1 HA; parental HA bivalent antibody
# B11: REGN6093, anti-Influenza HA x anti-C1q bispecific antibody (bispecific antibody, V domains shown)
# VH 1: B10 VH
# VH 2: B5 VH 2
# VL: not shown
# notes: also called FluA group 1 x C1q bispecific; anti-HA x anti-C1q
# B12: mAb27250, one-arm parental HA antibody (antibody, V domains shown)
# VH: B10 VH
# VL: not shown
# notes: also called Flu A, group 1, one arm
# Tests used:
# [1] = target: T1, human complement component 1q (C1q) (human, UniProt P02745 23-245; P02746 28-253; P02747 29-245)
# T1 sequence (P02745 23-245, chain 1 of 3): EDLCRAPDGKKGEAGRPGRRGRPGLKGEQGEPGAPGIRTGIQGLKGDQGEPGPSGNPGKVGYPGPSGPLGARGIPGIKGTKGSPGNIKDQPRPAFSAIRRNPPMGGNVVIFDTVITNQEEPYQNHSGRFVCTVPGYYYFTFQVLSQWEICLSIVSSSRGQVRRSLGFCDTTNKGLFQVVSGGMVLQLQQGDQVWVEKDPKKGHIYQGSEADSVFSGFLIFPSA
# T1 sequence (P02746 28-253, chain 2 of 3): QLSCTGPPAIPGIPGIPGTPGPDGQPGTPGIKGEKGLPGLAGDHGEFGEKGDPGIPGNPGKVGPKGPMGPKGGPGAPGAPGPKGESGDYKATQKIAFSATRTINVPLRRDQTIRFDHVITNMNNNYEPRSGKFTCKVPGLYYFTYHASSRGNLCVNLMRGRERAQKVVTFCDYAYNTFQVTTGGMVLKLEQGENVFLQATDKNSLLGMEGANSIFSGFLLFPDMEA
# T1 sequence (P02747 29-245, chain 3 of 3): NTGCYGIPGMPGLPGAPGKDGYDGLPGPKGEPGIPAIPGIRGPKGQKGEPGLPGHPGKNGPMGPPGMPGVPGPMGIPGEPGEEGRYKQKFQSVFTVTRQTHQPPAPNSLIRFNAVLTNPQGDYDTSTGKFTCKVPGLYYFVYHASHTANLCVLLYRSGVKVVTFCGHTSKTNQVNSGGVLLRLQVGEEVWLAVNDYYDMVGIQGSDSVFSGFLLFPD
# IsdB.6×(His) = IsdB.6×(His) (Staphylococcus aureus, UniProt A6QG30 41-613); experiment: SPR (Biacore T200), 37C; antibody captured, IsdB.6xHis injected
# [2] = target: T1, human complement component 1q (C1q); remark: listed apart in the source
# biotinylated human C1q [3] = target: T2, biotinylated human C1q (human, UniProt P02745 23-245; P02746 28-253; P02747 29-245)
# T2 sequence (P02745 23-245, chain 1 of 3): as the sequence (P02745 23-245, chain 1 of 3) above
# T2 sequence (P02746 28-253, chain 2 of 3): as the sequence (P02746 28-253, chain 2 of 3) above
# T2 sequence (P02747 29-245, chain 3 of 3): as the sequence (P02747 29-245, chain 3 of 3) above
# [4] = target: T1, human complement component 1q (C1q); remark: listed apart in the source
# biotinylated human C1q [5] = target: T2, biotinylated human C1q; remark: listed apart in the source
# CD20 on Raji cells [6] = target: T3, CD20 on Raji cells (human, UniProt P11836 1-297)
# T3 sequence (looked up): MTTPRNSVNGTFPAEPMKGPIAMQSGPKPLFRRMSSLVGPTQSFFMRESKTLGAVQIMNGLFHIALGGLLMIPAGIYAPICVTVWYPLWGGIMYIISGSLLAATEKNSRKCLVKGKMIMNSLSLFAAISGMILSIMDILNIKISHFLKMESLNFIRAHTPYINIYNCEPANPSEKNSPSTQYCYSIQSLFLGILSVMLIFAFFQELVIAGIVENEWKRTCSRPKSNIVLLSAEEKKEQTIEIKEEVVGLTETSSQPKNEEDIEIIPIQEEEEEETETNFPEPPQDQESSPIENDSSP
# CD20 on Raji cells [7] = target: T3, CD20 on Raji cells; remark: listed apart in the source
# hGITR.mmh [8] = target: T4, hGITR.mmh (human)
# T4 chain: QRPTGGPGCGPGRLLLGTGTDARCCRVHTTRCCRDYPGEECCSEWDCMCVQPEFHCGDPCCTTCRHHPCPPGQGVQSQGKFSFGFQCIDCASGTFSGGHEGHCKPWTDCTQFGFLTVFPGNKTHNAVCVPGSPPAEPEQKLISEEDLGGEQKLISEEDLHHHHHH
# [9] = target: T5, human GITR on Jurkat/hGITR/hCD20 cells (human, UniProt Q9Y5U5 26-241)
# T5 sequence (looked up): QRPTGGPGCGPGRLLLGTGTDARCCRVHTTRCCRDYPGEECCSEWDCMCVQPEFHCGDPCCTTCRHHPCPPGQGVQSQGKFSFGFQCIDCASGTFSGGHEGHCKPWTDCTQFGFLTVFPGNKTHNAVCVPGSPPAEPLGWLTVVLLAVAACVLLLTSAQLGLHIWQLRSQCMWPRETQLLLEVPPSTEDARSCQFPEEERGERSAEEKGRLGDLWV
# hGITR.mmh [10] = target: T4, hGITR.mmh
# hGITR.mmh [11] = target: T4, hGITR.mmh
# IsdA.6×(His) = target: T6, IsdA.6×(His) (Staphylococcus aureus, UniProt A6QG31 47-316); experiment: SPR (Biacore), 37C; IsdA.6xHis captured, bsAb injected
# T6 sequence: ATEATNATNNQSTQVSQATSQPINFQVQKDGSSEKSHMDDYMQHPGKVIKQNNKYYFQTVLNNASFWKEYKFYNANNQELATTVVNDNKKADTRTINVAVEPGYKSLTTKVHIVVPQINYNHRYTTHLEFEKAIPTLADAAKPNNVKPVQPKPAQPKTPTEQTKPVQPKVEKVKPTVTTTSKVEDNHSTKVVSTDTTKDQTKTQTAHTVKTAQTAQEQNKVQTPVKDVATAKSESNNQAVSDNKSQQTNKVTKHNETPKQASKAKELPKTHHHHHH
# [12] = target: T7, hemagglutinin (HA) on A/Puerto Rico/08/1934 (H1N1)-infected MDCK cells (Influenza A virus A/Puerto Rico/08/1934 …, UniProt P03452 18-565); experiment: cell ELISA on fixed A/Puerto Rico/08/1934 (H1N1)-infected MDCK cells
# T7 construct: whole, on cells; also called Influenza HA
# [13] = target: T7, hemagglutinin (HA) on A/Puerto …; experiment: cell-based or functional assay
# biotinylated human C1q [14] = target: T2, biotinylated human C1q
# [15] = target: T1, human complement component 1q (C1q); experiment: SPR (Biacore T200), 37C; bsAb captured via anti-human F(ab')2, hC1q injected
# [16] = target: T1, human complement component 1q (C1q); experiment: SPR (Biacore T200), 25C; bsAb captured via anti-human F(ab')2, hC1q injected
# biotinylated human C1q [17] = target: T2, biotinylated human C1q; remark: listed apart in the source
binder,measurement,setting,value
B1,Kd,[1],0.632 nM
same,koff,[1],0.0102 s⁻¹
same,kon,[1],1.61e+07 M⁻¹ s⁻¹
B2,Kd,IsdB.6×(His),1.75 nM
same,T1/2,IsdB.6×(His),18 min
same,koff,IsdB.6×(His),0.00064 s⁻¹
same,kon,IsdB.6×(His),365000 M⁻¹ s⁻¹
B3,Kd,[2],2.41 nM
same,koff,[2],0.0116 s⁻¹
same,kon,[2],4.8e+06 M⁻¹ s⁻¹
same,Kd,biotinylated human C1q [3],431 nM
same,koff,biotinylated human C1q [3],0.0276 s⁻¹
same,kon,biotinylated human C1q [3],64000 M⁻¹ s⁻¹
same,Kd,[4],0.747 nM
same,koff,[4],0.00262 s⁻¹
same,kon,[4],3.51e+06 M⁻¹ s⁻¹
same,Kd,biotinylated human C1q [5],343 nM
same,koff,biotinylated human C1q [5],0.0149 s⁻¹
same,kon,biotinylated human C1q [5],43500 M⁻¹ s⁻¹
B4,EC50,CD20 on Raji cells [6],3.14 nM
same,EC50,CD20 on Raji cells [7],3.14 nM
B5,Kd,[2],1.74 nM
same,koff,[2],0.00582 s⁻¹
same,kon,[2],3.34e+06 M⁻¹ s⁻¹
same,kon,hGITR.mmh [8],330000 M⁻¹ s⁻¹ and 274000 M⁻¹ s⁻¹
same,EC50,[9],31 nM
same,Kd,hGITR.mmh [10],3.3 nM
same,koff,hGITR.mmh [10],0.00229 s⁻¹
same,kon,hGITR.mmh [10],693000 M⁻¹ s⁻¹
same,Kd,biotinylated human C1q [3],1860 nM
same,koff,biotinylated human C1q [3],0.449 s⁻¹
same,kon,biotinylated human C1q [3],241000 M⁻¹ s⁻¹
same,Kd,[4],0.528 nM
same,koff,[4],0.00162 s⁻¹
same,kon,[4],3.07e+06 M⁻¹ s⁻¹
same,Kd,biotinylated human C1q [5],3330 nM
same,koff,biotinylated human C1q [5],0.658 s⁻¹
same,kon,biotinylated human C1q [5],198000 M⁻¹ s⁻¹
same,Kd,hGITR.mmh [11],7.38 nM
same,koff,hGITR.mmh [11],0.00795 s⁻¹
same,kon,hGITR.mmh [11],1.08e+06 M⁻¹ s⁻¹
B6,Kd,[2],0.481 nM
same,koff,[2],0.00499 s⁻¹
same,kon,[2],1.04e+07 M⁻¹ s⁻¹
same,Kd,biotinylated human C1q [3],436 nM
same,koff,biotinylated human C1q [3],0.0442 s⁻¹
same,kon,biotinylated human C1q [3],101000 M⁻¹ s⁻¹
same,Kd,[4],0.688 nM
same,koff,[4],0.00224 s⁻¹
same,kon,[4],3.26e+06 M⁻¹ s⁻¹
same,EC50,CD20 on Raji cells [6],35.6 nM
same,EC50,CD20 on Raji cells [7],35.7 nM
B7,EC50,[9],3.07 nM
B8,Kd,IsdA.6×(His),3.62 nM
same,T1/2,IsdA.6×(His),11.8 min
same,koff,IsdA.6×(His),0.000977 s⁻¹
same,kon,IsdA.6×(His),270000 M⁻¹ s⁻¹
same,Kd,[1],1.3 nM
same,koff,[1],0.00469 s⁻¹
same,kon,[1],3.62e+06 M⁻¹ s⁻¹
B9,EC50,CD20 on Raji cells [6],6.03 nM
same,EC50,CD20 on Raji cells [7],6.03 nM
B10,EC50,[12],1.46 nM
same,Maximum binding (RLUs),[12],788000 RLU
same,CDC EC50 (H1N1-infected MDCK cells),[13],20.8 nM
same,Maximum percent specific lysis (CDC of H1N1-infected MDCK cells),[13],35.8%
B11,EC50,[12],1.84 nM
same,Maximum binding (RLUs),[12],849000 RLU
same,CDC EC50 (H1N1-infected MDCK cells),[13],10.5 nM
same,Maximum percent specific lysis (CDC of H1N1-infected MDCK cells),[13],30%
same,Kd,biotinylated human C1q [14],516 nM
same,koff,biotinylated human C1q [14],0.0937 s⁻¹
same,kon,biotinylated human C1q [14],182000 M⁻¹ s⁻¹
same,t1/2,biotinylated human C1q [14],0.12 min
same,Kd,[15],1.11 nM
same,koff,[15],0.00401 s⁻¹
same,kon,[15],3.61e+06 M⁻¹ s⁻¹
same,t1/2,[15],2.9 min
same,Kd,[16],0.451 nM
same,koff,[16],0.00216 s⁻¹
same,kon,[16],4.8e+06 M⁻¹ s⁻¹
same,t1/2,[16],5.3 min
same,Kd,biotinylated human C1q [17],327 nM
same,koff,biotinylated human C1q [17],0.0309 s⁻¹
same,kon,biotinylated human C1q [17],94600 M⁻¹ s⁻¹
same,t1/2,biotinylated human C1q [17],0.37 min
B12,EC50,[12],0.648 nM
same,Maximum binding (RLUs),[12],719000 RLU
same,CDC EC50 (H1N1-infected MDCK cells),[13],20.7 nM
same,Maximum percent specific lysis (CDC of H1N1-infected MDCK cells),[13],39%
